# Data reported in the nanobody polyreactivity screen of Harvey et al. (2022).
# Test: yeast display, Sf9 membrane polyspecificity reagent, FACS + sequencing; frameworks hold sequencing errors
# Summary of the method: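 Polyreactivity labels are assigned by the sorting gate from which each nanobody was recovered. The gates were low and high (top ~1%), set on anti-HA fluorescence for expression and streptavidin fluorescence for reagent binding. Before sorting, galactose-induced (36–48 hours) yeast display cells were stained for 1 hour at 4 °C with 10% biotinylated, detergent-solubilized Sf9 membrane reagent.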
row,Sequence,polyreactivity (PSR sort gate)
1,QVQLVESGGGLVQAGGSLRLSCAASGRIFSHTVMGWYRQAPGKEGELVADISSSGGSTYYADSVKWRFTISRDNAKNTVDFQKNSLKPEYTAVYYCAAAPWASGTDEYWGHGTQVTVSS,low polyreactivity
2,QVQLVESGGGLVQAGGSLRLSCAASGFIFGINAMGWYRQAPGKERELVATITSGGGTNYADSVKGRFTISRDNAKNTVYLQMNSLKPEDTAVYYCAAEEDYIYFYVSMDYWGQGTQVTVSS,low polyreactivity
3,QVQLVESGGGLVQAGGSLRLSCAASGRIFATNAMGLYRPAPGKERELVATITRSAGRTYYADSVKGRFTISRDNAKNTVYLQMNSLKPEDTAVYYCAASYWDTEPGYREYVYWGQGTQVTVSS,low polyreactivity
4,QVQLVESGGGLVQAGGSLRLSCAASGSTFYSNAMGWYRQAPGKERELVAGISGSGGSSYYADSVKGRFTFSRDNAKNTVKLQMNSLKPEDTAVYYCNARKTRSYFRFDSWGQGTQVTVSS,low polyreactivity
5,QVQLVESGGGLVQAGGSLRLTCAASGSTFKQNVMGWYRQAPGKERELVAAITSGGSTNYADSVKGRFTISRDNAKNTVYLQMNSLKPEDTAVYYCNKDTSGIYLDDYWGQGTQVTVSS,low polyreactivity
6,QVQLVESGGGLVQAGGSLRLSCAASGSIFKDNAMGWYRQAPGKERELVAAITSGASTNYADSVKGRFTISRDNAKNTVYLQMNSLKPEDTAVYYCAAVLAGGVYWVVHYDYWGQGTQVTVSS,low polyreactivity
7,QVQLVESVGGLVQAGGSLRLSCAASGSIEAYAMGWYRQAPGKERELVASITWRGGSTYYADSVKGRFTISRDNAKNTVYLQMNSLKPEDTAVYYCAAGFQTRTPLNQFDYWGQGTQVTVSS,low polyreactivity
8,QDQLVESGGGLVQAGGSLRLSCAASGSIIDYYDMGWYRQAPGKEREFVAAINWSGGNTHYADSVKGRFTISRDNAKNTVYLQMNSLKPEDTAVYYCAVDVKIGTDFIGVVIPGDYWGQGTQVTVSS,low polyreactivity
9,QVQLVESGGGLVQAGGSLRLSCAASGSTFVKNAMGWYRQAPGKERELVAAISYRGGRTYYADSVKGRFTISRDNAKNTVYLQMNSLKPEDTAVYYCAADYISVYGYEYYYWGQGTQVTVSS,high polyreactivity
10,QVQLVESGGGLVQAGGSLRLSCAASGNIFKGYAMGWYRQAPGKERELVAAISKSGGSTYYADSVKGRFTISRDNAKNTVYLQMNSLKPEDTAVYYCAARSGGSGGTYGYWGQGTQVTVSS,high polyreactivity
11,QDQLVESGGGLVQAGGSLRLSCAASGSIFGVYAMGWYRQAPGKERELVAVISFNSGSTNYADSVKGRFTISRDNAKNTVYLQMNSLKPEDTAVYYCNSDAWHETQVSGYSWGQGTQVTVSS,low polyreactivity
12,QVQLVESGGGLVQAGGSLRLSCAASGRTFRLYAMGWYRQAPGKERELVAAIRSGGSTNYADSVKGRFTISRDNEKNTVYLQMNSLKPEYTAVYYCAVDGYFFQGPYYYWGQGTQVTVSS,low polyreactivity
13,QVQLVESGGGLVQAGCSLRLSCAASGFIFVGKDMGWYRQAPGKERELVAAISSGGTTNYADSVKGRFTISRDNAKNTVYLQMNSLKPEDTAVYYCAADFDYRQGYDSFHLDYWGQGTQVTVSS,low polyreactivity
14,QVQLVESGGGLVQAGGSLRLSCAASGSTYYNTMGWYRQAPGKEREFVAAITWSTGTTYYADSVKGRFTISRDNAKNTVYLQMNSLKPEDTAVYYCATDDSRDWLNYWGQGTQVTVSS,low polyreactivity
15,QVQLVESGGGLVQAGGSLRLSCAASGSTFTWNVMGWYRQAPGKERELVASITSGDSTYADSVKGRFTISRDNAKNTVYLQMNSLKPEDTAVYYCNVGYDQEKYGYWGQGTQVTVSS,low polyreactivity
16,QVQLVESGGGLVQAGGSLRLSCAASGRIFGVYAMGWYRQAPGKERELVADITRGGGSTYYADSVKGRFTISRDNAKNTVYLQMNSLKPEDTAVYYCAARYRFQRGGYYYWGQGTQVTVSS,high polyreactivity
17,QVQLVESGGGLVQAGGSLRLSCAATGFTFCANAMGWYRQAPGKERELVAAISWTGVNTYYADSVKGRFTISRDNAKNTVYLQMNSLKPEDTAVYSCAAEQWSTGYYYWGQGTQVTVSS,high polyreactivity
18,QVLLVESGGGLVQAGGSLRLSCAASGGTFLFYGMGWYRQAPGKERELVAVITWSGGSTYYADSVKGRFTISRDNAKNTVNLQMNSLKPEDTAVYYCNAANTGSPDYQSIGYNFNYWGQGTQVTVSS,low polyreactivity
19,QVQLVESGGGLVQAGGSLRLSCAASGRIFTRYAMGWYRQAPGKERELVAAIDRGGSTYYADSVKGRFTISRDNAKNTVYLQMNSLKPEDTAVYYCAARIKAWGLEFYYWGQGTQVTVSS,high polyreactivity
20,QVQLVESGGGLVQAGGSLRLSCAASGRIFYFNGMGWYRQAPGKERELVASISASGDRTYYADSVKGRFTISRDNAKNTVYLQMNSLKPEDTAVYYCATDANTYTKYDYWGQGTQVTVSS,low polyreactivity
21,QVQLVESGGGLVQAGGSLRLNCAASGSTFGRNAKGWYRQAPGKERELVAAISLSTGSTYDADSVKGRFTISRDNAKNTVYLQMNSLKPEDTAVYYCAKEWGHPYHFLYYYWGQGTQVTVSS,high polyreactivity
22,QVQLVESWGGLVQAGLSLRLSCAASGIMGWYRQAPGKERELVDAITYTGDSTFYADSVKGRFTISRDNPKNTVYVQINSLKAEDTAVYDCATKYGTSNWYNTYYYWGQGTQVTVSS,low polyreactivity

row,Sequence,polyreactivity (PSR sort gate)
1,FVQAGGSLRLSCAASGFIFGVYDMGWYRQAPGKERELVAAIDSVGSTYYADSVKGRFTISRDNAKNTVYLQMNSLNPEDTAVYYCAKDGSYQAYGYWGQGTQVTVSS,low polyreactivity
2,QVHLVESGGGLVQAGGSLRLSSAASGRIFYNYTMRWYRQAPGKERELVAAITRSGSSTYADSVKGRFTISRDNGKNTVYLQMNSLKQEDTAVYYCAGEYIRRYDYWGQGTQETVSS,low polyreactivity
3,QVQLVESGGGLVQAGGSLRLSCAASGRILAAYTMGWYRQAPGKERELVAAITRGGSRTNYADSVKGRFTISRDNAKNTVYLQMNSLKPEDTAVYYCAATWSAYRRWGYDYWGQGTQVTVSS,high polyreactivity
4,QVQLVESGGGLVQAGGSLRLSCAASGSIFSQYVMGWYRQAPGKERELVAAISWSGGHTYYADSVKGRFTISRDNAKNTVYLQMNSLKPEDTAVYYCRAFFRRDYWGQGTQVTVSS,high polyreactivity
5,QVQLVESGGGLVQAGGSLRLSCAASGSIFTRNAMGWYRQAPGKERELVASISWRGGSTYYADSVKGRFTISRDNAKNTVYLQMNSLKPEDTAVYYCNRRAYRNGYGFRDGTWEYDYWGQGTQVTVSS,high polyreactivity
6,QVQLVESGGGLVQAGGSLRLSCAASGFIIFRYAMGWYRQAPGKERELDAAITRSGGSTYYADSVKGRFTISRDNAKNSVYLQMNCLKPEDTAVYYCNASRQCFTYARMDYWGQGTQVTVSS,high polyreactivity
7,QVQLVESGGGLVQAGGSLRLSCAASGITFGRNTMGWYRPAPGKERELVAAIDSGGNTYADSVKGRFTISRDNAKNTVYLQMNSLKAEDTAVYYCAVDGGEFSSYGYWGQGTQVTVSS,low polyreactivity
8,QVQLVESGGGLVQAGGSLRLSCAASGYIFDRYAMGWSRPAPGKERELVAAISGRGGSTYYADSVKGRFTISLDNAKNTVYLQMNSLKPEDTAVYYCNALVQGKEYYWGQGTQVTVSS,high polyreactivity
9,QVQLQESGAALVQAGGSLRLSCAASGNIFVDAYMGWYRQAPGKERELVATIAPADSVKGRFTISRDNAKNTVYLQMNRLKPEDTAVYYCAAFTGYSSVFGFWGQGIQVTVSS,high polyreactivity
10,QVQLVESGGRLVQAGGSLRLSCAASGRIFVYNAMRWYRQAPGKERELVASITSSGGSTYYADSVKGRFTISRDNAKNTVYLQMNSLKPEDTAVYYCAADVQPDTRSTPEMDYWGQGTQVTVSS,low polyreactivity
11,QVQLVESGGRLVQAGGRLRLSCAASGSIFLYNARGWYRQAPGKERELVAAINYSGVSTYYADSVKGRFTISRDNAKNTVYLQMNSLKPEDTAVYYCARRWNAFGSKGGYWGQGTQVTVSS,high polyreactivity
12,QVQLVESGGGLVQAGGSLRLSCAASGLIFAEYAMGWYRQAPGKERELVARITSGGSTDYADSVKGRFTISRDNAKNTVYLQMNSLKPEDTAVYYCAARYYSQDKNASTASDFDYWGQGTQVTVSS,low polyreactivity
13,QVQLVETGGGLVQAGGSLRLSCAASGRIFYYKAKGWYRQAPGKERELVASISWDASSTYYADSVKGRFTISRDNAKNTVYLQMNSLKPEDTAVYYCNIKHLYRQYDYWGQGTQVTVSS,low polyreactivity
14,QVQLVESGGGLVQSGGSLRLSCAASGSIYAYYAMGWYRQAPGKERELVAAIRFNSGRTYYADSVKGRFTISRDNAKNTVYLQMKSLKPEDTAVYYCAARDGYVYSHRYDYWGQGTQVTVSS,high polyreactivity
15,QVQLVESGGGLVQAGGSLRLSCAASGFIFDNNAMGWYRQAPGKERELVATITSGGRTNYADSVKVRFTISRDNAKNTVYLQMNSLKPEDTAVYYCAAGYYLGSRRKTRDYWGQGTQVTVSS,low polyreactivity
16,QVQLVESGGGLVQAGGSLRLSCAASGSILHAYAMGWYRQAPGKEREFVAAIRRRGGSTYYADSVKGRFTISRDNAKNTVYLQMNSLKPEDTAVYYCAARFPLIGDSGGKSDYWGQGTQVTVSS,high polyreactivity
17,QVQLVESGRGLVQAGGSLRLSCAASGSTFDANAMGWYRQAPGKERELVAAISRSGGNTYYADSVKGRFTISRDNAKNTVYLQMNSLKPEDTAVYYCAADFRNAYYDRLDYWGQGTHVTVSS,low polyreactivity
18,QVQLVESGGGLVQAGGSLRLSCAASGRIFSRYAMGWYRQAPGKERELVATITRRGGSTSYADSVKGRFTISRDNAKNTVYLQMNSLKPEDTAVYYCAAQSFYGIYYGQQDYDYWGQGTQVTVSS,high polyreactivity
19,QVQLVESGGGLVQAGGSLRLSCAASGFTFPRYAMGWYRQAPGKERELVAAISTSGDSTYYADSVKGRFTISRDNAKNTVYLQMNSLKPEDTAVYYCAARVVRGRYGYWGQGTQVTVSS,high polyreactivity
20,QVQLVESGGGLVQAGGSLRLSCAASGFIFAEYAMGWYRQATGKERELDAGITSGGSTSYADSVKGRFTISRDNAKNTVYLQMTSLKPDATAVYYCAATWYYHYNDWKHWYEYGYWGLGTQVTVSS,low polyreactivity
21,QVQLVESGGGLVQAGGSLRLSCAASGRIFPRYAMGWYRQAPGKERQLVAAITSGDSTHYADSVKGRFTISRDNAKNTVYLQMNSLKPEDTAVYYCAAKYPRYGRHAYGYWGQGTQVTVSS,high polyreactivity
